Results reported in article PMC8086144, “A novel peptide antagonist of the human growth hormone receptor” (The Journal of Biological Chemistry, 2021).

T1: hPRLR (Homo sapiens, UniProt P16471)
T1 construct: T84 cells express high levels of hPRLR relative to hGHR (>1300:1); host or cells: T84 (human colon cancer), MALME-3M (human melanoma)
T1 sequence (P16471 25-622): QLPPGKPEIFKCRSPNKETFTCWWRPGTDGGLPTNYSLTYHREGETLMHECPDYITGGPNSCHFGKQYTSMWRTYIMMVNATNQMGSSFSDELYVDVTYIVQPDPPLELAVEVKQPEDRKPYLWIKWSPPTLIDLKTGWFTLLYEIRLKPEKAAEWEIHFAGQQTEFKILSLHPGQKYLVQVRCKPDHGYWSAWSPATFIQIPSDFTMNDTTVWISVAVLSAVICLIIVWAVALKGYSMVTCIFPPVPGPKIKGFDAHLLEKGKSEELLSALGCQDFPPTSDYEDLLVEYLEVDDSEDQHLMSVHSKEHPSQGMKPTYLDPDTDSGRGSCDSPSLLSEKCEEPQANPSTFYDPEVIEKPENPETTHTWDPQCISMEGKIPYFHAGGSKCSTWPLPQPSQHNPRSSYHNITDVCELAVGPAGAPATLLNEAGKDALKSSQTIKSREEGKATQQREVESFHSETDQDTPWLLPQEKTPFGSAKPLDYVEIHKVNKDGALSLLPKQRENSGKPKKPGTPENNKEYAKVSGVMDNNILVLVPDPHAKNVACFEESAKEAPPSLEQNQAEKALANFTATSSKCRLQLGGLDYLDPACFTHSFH

T2: trypsin (bovine pancreas) (Bos taurus, UniProt P00760)
T2 construct: purchased Sigma-Aldrich; host or cells: bovine pancreas
T2 sequence (P00760 24-246): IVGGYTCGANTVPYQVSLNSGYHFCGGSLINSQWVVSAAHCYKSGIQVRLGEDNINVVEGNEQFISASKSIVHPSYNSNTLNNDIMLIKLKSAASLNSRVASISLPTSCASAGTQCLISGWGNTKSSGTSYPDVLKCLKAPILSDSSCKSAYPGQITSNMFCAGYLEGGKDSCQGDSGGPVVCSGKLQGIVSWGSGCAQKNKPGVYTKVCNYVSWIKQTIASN

T3: mouse GHR (mouse (endogenous in L fibroblasts)) (UniProt P16882)
T3 sequence: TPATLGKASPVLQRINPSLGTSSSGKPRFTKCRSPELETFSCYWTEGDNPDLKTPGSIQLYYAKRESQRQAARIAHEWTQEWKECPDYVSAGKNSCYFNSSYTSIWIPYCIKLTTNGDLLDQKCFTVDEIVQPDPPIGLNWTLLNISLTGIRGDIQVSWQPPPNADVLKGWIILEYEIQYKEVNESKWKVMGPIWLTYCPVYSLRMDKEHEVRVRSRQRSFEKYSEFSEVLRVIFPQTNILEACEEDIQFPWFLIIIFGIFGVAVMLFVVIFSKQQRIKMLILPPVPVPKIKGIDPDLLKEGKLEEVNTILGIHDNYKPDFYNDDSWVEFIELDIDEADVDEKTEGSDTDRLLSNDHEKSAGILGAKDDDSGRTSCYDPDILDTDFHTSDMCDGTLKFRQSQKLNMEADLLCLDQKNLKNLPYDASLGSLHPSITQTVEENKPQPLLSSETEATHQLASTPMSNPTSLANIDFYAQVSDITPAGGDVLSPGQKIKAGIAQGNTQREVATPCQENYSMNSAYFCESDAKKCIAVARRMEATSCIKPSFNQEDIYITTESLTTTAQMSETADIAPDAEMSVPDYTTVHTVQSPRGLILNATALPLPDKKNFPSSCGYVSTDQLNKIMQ

T4: human prolactin receptor (human (endogenous in T84, MALME-3M)) (UniProt P16471)
T4 sequence: T1 sequence (P16471 25-622)


Assays:
hPRLR = target: T1, hPRLR; assay: hGH-mediated pSTAT5 in T84 cells, Western blot; format: cell-based; conditions: 50 nM inhibitor with 2.5 nM hGH, 20 min
Method: SK-MEL-28, MALME-3M, and T84 cells were grown and maintained in Eagle's Minimal Essential Medium. IM9 and L cells were grown in RPMI-1640 media and Dulbecco's modified Eagle's medium, respectively. All growth media was supplemented with 10% fetal bovine serum and 1× antibiotic-antimycotic […] solution. Cells were grown at 37 °C under a 5% CO2 atmosphere in a humidified incubator, and growth media was replaced every 48 h during incubation. No hGH was present in or added to the growth media unless specifically indicated. […]
Following treatment, the cells were harvested at the indicated time points, and the total protein was extracted. […] Sample protein concentration was quantified using a Bradford assay with bovine serum albumin as the protein standard. Absorbance at 595 nm was measured using a Spectramax 250 multimode plate reader (Molecular Devices) and processed using SoftmaxPro v4.7.1 software.
Cytosolic fractions from treated cells were thawed on ice, and 80 μg protein was loaded onto polyacrylamide gels for separation by SDS-PAGE. […] Chemiluminescence signals were detected using a GelDoc (BioRad) fluorescence imager. […] Percent inhibition was then measured by subtracting the pSTAT5 band intensity in each lane from the pSTAT5 band intensity of hGH-treated samples. […]

[1] = Stability of hGH and pegvisomant in human serum (Western blot); format: in vitro ADME; conditions: RPMI with 25% (v/v) heat-inactivated human AB serum, 37 °C, 25 μg/ml protein, SDS-PAGE/Western blot densitometry, average of three experiments
Method: (§1) The samples were then incubated at 95 °C for 5 min before being cooled on ice and stored at −80 °C. […] Following separation, the proteins were transferred to polyvinylidine difluoride membranes and subjected to Western blot analysis (vide infra). The fraction of intact protein was quantified by measuring the integrated density of each band contained within regions of the gel corresponding to “intact” or “degraded” proteins. […] These reactions were allowed to incubate at 37 °C for up to 8 h, with samples removed at selected timepoints for analysis. Following incubation, the samples were either mixed with 5× Laemmli loading buffer and subjected to SDS-PAGE for Western blot analysis (Fig. S5) or directly injected onto a C18 reversed-phase column for analysis by HPLC as described above for the S1H peptide (Fig. S4).

[2] = target: T2, trypsin (bovine pancreas); assay: Trypsin degradation of hGH and pegvisomant (HPLC and Western blot); format: in vitro ADME; conditions: 4 μg/ml trypsin in digestion buffer pH 7.8, 37 °C, up to 8 h, 25 μg/ml protein
Method: as §1

[3] = target: human growth hormone receptor (human (endogenous in SK-MEL-28, MALME-3M, IM9)) (UniProt P10912)
Chain of human growth hormone receptor (human (endogenous in SK-MEL-28, MALME-3M, IM9)) (P10912 19-638): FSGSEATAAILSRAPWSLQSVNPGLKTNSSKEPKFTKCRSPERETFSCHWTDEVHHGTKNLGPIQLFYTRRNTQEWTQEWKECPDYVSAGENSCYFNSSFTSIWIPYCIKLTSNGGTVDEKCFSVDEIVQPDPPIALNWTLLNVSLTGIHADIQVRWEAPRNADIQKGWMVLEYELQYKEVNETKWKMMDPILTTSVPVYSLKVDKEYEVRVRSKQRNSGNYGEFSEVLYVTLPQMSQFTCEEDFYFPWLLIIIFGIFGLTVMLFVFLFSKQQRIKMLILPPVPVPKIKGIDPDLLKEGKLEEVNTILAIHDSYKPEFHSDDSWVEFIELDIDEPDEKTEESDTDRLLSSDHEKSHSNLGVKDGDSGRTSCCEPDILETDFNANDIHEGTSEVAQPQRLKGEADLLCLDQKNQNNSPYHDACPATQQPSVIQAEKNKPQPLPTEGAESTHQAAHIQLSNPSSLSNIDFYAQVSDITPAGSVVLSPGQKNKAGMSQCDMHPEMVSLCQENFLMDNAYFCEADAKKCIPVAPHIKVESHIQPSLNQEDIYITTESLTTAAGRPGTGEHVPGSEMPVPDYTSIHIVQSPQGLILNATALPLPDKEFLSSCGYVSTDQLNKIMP

[4] = target: T3, mouse GHR (mouse (endogenous in L fibroblasts))
[5] = target: human growth hormone receptor (human (endogenous in SK-MEL-28, MALME-3M, IM9)) (UniProt P10912); remark: listed apart in the source
[6] = target: T4, human prolactin receptor (human (endogenous in T84, MALME-3M))

Row | Molecule | suppression of hGH-mediated phosphorylation of STAT5 (hPRLR) [%] | protein remaining intact after 48 h in human serum [1] [%] | time to full degradation by trypsin [2] [h] | suppression of hGH-mediated pSTAT5 (Western blot) in IM9 cells co-treated with 2.5 nM hGH and 200 nM S1H; pair blocked: hGH with hGHR [3] [%] | suppression of hGH-mediated pSTAT5 (Western blot) in MALME-3M cells co-treated with 2.5 nM hGH and 200 nM S1H; pair blocked: hGH with hGHR [3] [%] | suppression of hGH-mediated pSTAT5 (Western blot) in SK-MEL-28 cells co-treated with 2.5 nM hGH and S1H, 100 nM (46%) to 200 nM (67%); pair blocked: hGH with hGHR [3] [%] | suppression of hGH-mediated pSTAT5 (Western blot) in mouse L fibroblasts co-treated with GH and 200 nM S1H; pair blocked: GH with the GHR of the L cells [4] [%] | inhibition of hGH-induced pSTAT5 (Western blot) in MALME-3M cells treated with 2.5 nM hGH and 50 nM S1H; pair blocked: hGH with hGHR [5] [%] | inhibition of hPRL-induced pSTAT5 (Western blot) in MALME-3M cells treated with 2.5 nM hPRL and S1H; pair blocked: hPRL with hPRLR [6] [%]
1 | pegvisomant [reference compound] | 27 | 76 | 4 | – | – | – | – | – | –
2 | Ac-YIPKEQKYSFLQNPQT-NH2 [S1H peptide (site 1-binding helix)] | – | – | – | 67 | 56 | 67 | 36 | 40 | 49
